Measurements reported in publication PMC9769727, “Glucose-6-Phosphate Dehydrogenase, ZwfA, a Dual Cofactor-Specific Isozyme Is Predominantly Involved in the Glucose Metabolism of Pseudomonas bharatica CSV86^T” (Microbiology Spectrum, 2022).

How the values were obtained:
[1] = molecular target: Glucose-6-phosphate dehydrogenase ZwfC from Pseudomonas bharatica CSV86T (Pseudomonas bharatica CSV86T); experiment: SEC; Superdex 200 Increase 10/300 GL column (CV 24 mL, GE Healthcare) in Buffer A (Tris-Cl 50 mM, pH 7.5), 4°C; native molecular weight from a semilog plot of Ve/V0 against standard proteins, compared with the subunit weight by SDS-PAGE
[2] = molecular target: Glucose-6-phosphate dehydrogenase ZwfA from Pseudomonas bharatica CSV86T (Pseudomonas bharatica CSV86T); experiment: SEC; ENrich SEC 650 column (CV 24 mL, Bio-Rad) in Buffer A (Tris-Cl 50 mM, pH 7.5), 4°C; native molecular weight from a semilog plot of Ve/V0 against standard proteins, compared with the subunit weight by SDS-PAGE
[3] = substrate: NC(=O)c1ccc[n+]([C@@H]2O[C@H](COP(=O)(O)OP(=O)(O)OC[C@H]3O[C@@H](n4cnc5c(N)ncnc54)[C@H](OP(=O)(O)O)[C@@H]3O)[C@@H](O)[C@H]2O)c1; experiment: purified protein; format: biochemical, Pseudomonas bharatica; conditions: 5 mM G6P fixed, Tris-Cl 50 mM, pH 8.25, hyperbolic
[4] = substrate: NC(=O)c1ccc[n+]([C@@H]2O[C@H](COP(=O)(O)OP(=O)(O)OC[C@H]3O[C@@H](n4cnc5c(N)ncnc54)[C@H](O)[C@@H]3O)[C@@H](O)[C@H]2O)c1; experiment: purified protein; format: biochemical, Pseudomonas bharatica; conditions: 5 mM G6P fixed, Tris-Cl 50 mM, pH 8.25, hyperbolic

Question: “Glucose-6-phosphate dehydrogenase ZwfC from Pseudomonas bharatica CSV86T (enzyme)” was tested. Which stoichiometry N [1] did it give?
Answer: 4

Question: For “Glucose-6-phosphate dehydrogenase ZwfA from Pseudomonas bharatica CSV86T (enzyme)”, which stoichiometry N [2] is on record?
Answer: 4

B1: ZwfA (Pseudomonas bharatica CSV86) (protein)
chain: MSSISVEPCTFALFGALGDLALRKLFPALYQLDRAGLLHERTRLLALAREPGSVQEHLASIEAHLHEFVASDTLDTTVLQRFLGRLNYLHMDFLDAQAYPALAAQVTPEAPLIAYFATPAAVYGGICENLAKVGLAERTRVVLEKPIGHDLESSRRVNDAVAQFFPENRIYRIDHYLGKETVQNLIALRFANSLFETQWNQTSISHVEISVAEKVGIEGRWGYFDKAGQLRDMIQNHLLQLLCLIAMDPPSDLSADSIRDEKVKVLKALAPITGEGLGTRVVRGQYIAGHSDGRALPGYLDEENANTHSDTETFVALRADIRNWRWAGVPFYLRTGKRMPQKLSQIVIHFKEPQHYIFAAEQRLQIGNKLIIRLQPDEGISLRVMTKEQGLDKGMQLRSSPLQLNFSDGSFRSARIPDAYERLLLEVMRGNQNLFVRKDEIEYAWKWCDQLIAGWKQSGEAPRPYAAGTWGPVAAVALITRDGRSWYGDI
notes: full length, 490 aa (1473 nt), pET28a N-terminal 6xHis tag, E. coli BL21(DE3), Ni-NTA; subunit ~56 kDa, homotetramer ~217 kDa; part of zwfA-pgl-eda operon; Arg49, Leu17
Question: Which results are given for B1?
Answer: Km [3]: 110.5 ± 20 µM; Vmax [3]: 201 ± 28 µmol/min/mg; kcat [3]: 187 ± 26 s⁻¹; kcat/Km [3]: 1.7e+06 ± 300000 M⁻¹ s⁻¹; Km [4]: 366 ± 70 µM; Vmax [4]: 329 ± 74 µmol/min/mg; kcat [4]: 306 ± 69 s⁻¹; kcat/Km [4]: 860000 ± 150000 M⁻¹ s⁻¹
